The text below walks through data of patent US20100041873A1.

The target in this assay is Human IL-21 receptor on Baf3/KZ134/huIL-21R cells (human) (UniProt Q9HBE5). Put plainly: cell-based or functional assay.
Chain of Human IL-21 receptor on Baf3/KZ134/huIL-21R cells (human) (Q9HBE5 20-538): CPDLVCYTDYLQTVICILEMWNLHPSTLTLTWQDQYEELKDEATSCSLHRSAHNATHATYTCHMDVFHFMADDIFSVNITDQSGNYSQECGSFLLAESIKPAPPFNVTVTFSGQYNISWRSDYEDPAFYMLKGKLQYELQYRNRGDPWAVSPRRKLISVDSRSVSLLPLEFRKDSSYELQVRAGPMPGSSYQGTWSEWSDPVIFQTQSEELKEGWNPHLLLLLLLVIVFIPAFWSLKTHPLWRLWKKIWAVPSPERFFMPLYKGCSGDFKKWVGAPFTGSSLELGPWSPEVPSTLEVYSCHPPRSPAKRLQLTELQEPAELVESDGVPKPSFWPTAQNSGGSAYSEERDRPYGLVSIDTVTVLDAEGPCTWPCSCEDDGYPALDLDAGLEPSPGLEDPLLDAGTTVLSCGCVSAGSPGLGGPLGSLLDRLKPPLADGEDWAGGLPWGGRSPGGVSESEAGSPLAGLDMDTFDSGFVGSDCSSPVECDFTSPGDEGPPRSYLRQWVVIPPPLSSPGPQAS

“Recombinant rat IL-21 (from UniProt A3QPB9 18-146) (ligand)”: the EC90, 24 hr STAT-Luciferase assay in Baf3/KZ134/huIL-21R cells worked out at 1.08 nM.
